{
  "source": "patent US20080076824A1",
  "about": "“Compounds That Inhibit Replication Of Human Immunodeficiency Virus” (priority 2004, published 2008)",
  "format_in_all_cases": "biochemical",
  "key": {"[1]": {"substrate": "NCC(=O)N1CCC[C@H]1C(=O)NCC(N)=O", "assay": "Conversion of [14C]GPG-NH2 to G-NH2 by human serum", "details": "other: derived from GPG-NH2 disappearance curves; pH 3.5", "experimental": "(§1) Next, the conversion of radiolabeled [^14C]GPG-NH2 to [^14C]G-NH2 by purified CD26, fetal bovine serum (FBS), human serum (HS) and CEM cell suspensions was analyzed. Radiolabeled [^14C]GPG-NH2 (radiospecificity: 58 mCi/mmol), in which the radiolabeled carbon is located in the main chain carbon of the glycine at the carboxylic acid end of the tripeptide, and [^14C]G-NH2 (radiospecificity: 56 mCi/mmol) in which carbon-2 was radiolabeled were synthesized by Amersham Pharmacia Biotech (Buckinghamshire, England). A variety of these [^14C]GPG-NH2 concentrations were exposed to purified CD26, FBS, HS and CEM cell suspensions and the conversion to G-NH2 was analyzed.\n(§2) In another set of experiments, after one hour of exposure, disappearance of intact [^14C]GPG-NH2 was determined by HPLC analysis, as described above, using a cation-exchange Partisphere SCX column and a sodium phosphate buffer gradient at pH 3.5. GPG-NH2 was well-separated from G-NH2 (retention times: 25-27 min and 15-17 min, respectively). […] The GPG-NH2 conversion by the CEM cell suspensions proceeded linearly up to 1.5 mM. Only at higher GPG-NH2 concentrations (e.g., 3 and 5.4 mM), did the conversion curve for the CEM cell suspensions start to level-off slightly."}, "[2]": {"substrate": "NCC(=O)N1CCC[C@H]1C(=O)NCC(N)=O", "assay": "Conversion of [14C]GPG-NH2 to G-NH2 by fetal bovine serum", "details": "other: derived from GPG-NH2 disappearance curves; pH 3.5", "experimental": "as §1, §2"}, "[3]": {"substrate": "NCC(=O)N1CCC[C@H]1C(=O)NCC(N)=O", "assay": "Conversion of GPG-NH2 to GP-OH and G-NH2 by purified CD26", "details": "other: purified CD26; pH 3.5", "experimental": "In some experiments, approximately, 100 μM GPG-NH2 was exposed to 25 units/l of purified CD26 and the mixture was incubated for up to 400 minutes at room temperature. The lymphocyte surface glycoprotein CD26/dipeptidylpeptidase IV was purified as described before. (See De Meester, J. Immunol. Methods, 189:99-105 (1996), herein expressly incorporated by reference in its entirety). At different time points, an aliquot of the reaction mixture was withdrawn and analyzed on an electrospray ion trap mass spectrometer (Esquire, Bruker, Bremen, Germany). The appearance of the dipeptide GP-OH upon release from the amino terminal end of the GPG-NH2 molecule, as well as, the disappearance of intact GPG-NH2 from the reaction mixture was determined and monitored by electrospray ion trap mass spectometric analysis at different time points (See FIG. 3). Under these experimental conditions, CD26 released GP-OH in a time-dependent manner from GPG-NH2, and virtually completely converted GPG-NH2 to GP-OH and G-NH2 within 4 to 6 hrs of the reaction.\nNext, the conversion of radiolabeled [^14C]GPG-NH2 to [^14C]G-NH2 by purified CD26, fetal bovine serum (FBS), human serum (HS) and CEM cell suspensions was analyzed. […] A variety of these [^14C]GPG-NH2 concentrations were exposed to purified CD26, FBS, HS and CEM cell suspensions and the conversion to G-NH2 was analyzed. […]"}},
  "data": [
    {"protein": "dipeptidylpeptidase activity associated with HS (Homo sapiens) (protein, from tissue; host or cells: human serum) SRKTYTLTDYLKNTYRLKLYSLRWISDHEYLYKQENNILVFNAEYGNSSVFLENSTFDEFGHSINDYSISPDGQFILLEYNYVKQWRHSYTASYDIYDLNKRQLITEERIPNNTQWVTWSPVGHKLAYVWNNDIYVKIEPNLPSYRITWTGKEDIIYNGITDWVYEEEVFSAYSALWWSPNGTFLAYAQFNDTEVPLIEYSFYSDESLQYPKTVRVPYPKAGAVNPTVKFFVVNTDSLSSVTNATSIQITAPASMLIGDHYLCDVTWATQERISLQWLRRIQNYSVMDICDYDESSGRWNCLVARQHIEMSTTGWVGRFRPSEPHFTLDGNSFYKIISNEEGYRHICYFQIDKKDCTFITKGTWEVIGIEALTSDYLYYISNEYKGMPGGRNLYKIQLSDYTKVTCLSCELNPERCQYYSVSFSKEAKYYQLRCSGPGLPLYTLHSSVNDKGLRVLEDNSALDKMLQNVQMPSKKLDFIILNETKFWYQMILPPHFDKSKKYPLLLDVYAGPCSQKADTVFRLNWATYLASTENIIVASFDGRGSGYQGDKIMHAINRRLGTFEVEDQIEAARQFSKMGFVDNKRIAIWGWSYGGYVTSMVLGSGSGVFKCGIAVAPVSRWEYYDSVYTERYMGLPTPEDNLDHYRNSTVMSRAENFKQVEYLLIHGTADDNVHFQQSAQISKALVDVGVDFQAMWYTDEDHGIASSTAHQHIYTHMSHFIKQCFSLP", "values": [
      {"measurement": "Km", "setting": "[1]", "result": 450, "unit": "µM"}
    ]},
    {"protein": "dipeptidylpeptidase activity associated with FBS (Bos taurus) (protein, from tissue; host or cells: fetal bovine serum) SRRTYTLADYLKNTFRMKFYNLRWVSDHEYLYKQENNILLFNAEYGNSSIFLENSTFDEFGHSINDYSVSPDRQYILFEYNYVKQWRHSYTASYDIYDLNKRQLITEERIPNNTQWITWSSVGHKLAYVWNNDIYVKNEPNSPSQRITWTGKKDVIYNGITDWVYEEEVFSAYSALWWSPNSTFLAYAQFNDTEVPLIEYSFYSDESLQYPKTVKIPYPKAGAVNPTIKFFVVNISSLSPNINATSQQIVPPGSVLIGDHYLCDVTWVTEERISLQWLRRIQNYSIMDICDYDRSTGRWISSVGRQHIEISTTGWVGRFRPAEPHFTSDGNSFYKIISNEEGYKHICHFQTDKRNCTFITKGAWEVIGIEALTSDYLYYISNEYKGMPGARNLYKIQLNDYTKVTCLSCELNPDRCQYYSVSFSQEAKYYQLRCSGPGLPLYTLHNSNNDKELRVLENNSDLDQVLQDVQMPSKKLDFIHLHGTKFWYQMILPPHFDKSKKYPLLLEVYAGPCSQKADAIFRLNWATYLASTENIIVASFDGRGSGYQGDKIMHAINRRLGTFEVEDQIEATRQFSKMGFVDDKRIAIWGWSYGGYVTSMVLGAGSGVFKCGIAVAPVSKWEYYDSVYTERYMGLPTPEDNLDSYRNSTVMSRAENFKQVEYLLIHGTADDNVHFQQSAQISKALVDAGVDFQSMWYTDEDHGIASSTAHQHIYTHMSHFLKQCFSLL", "values": [
      {"measurement": "Km", "setting": "[2]", "result": 1400, "unit": "µM"}
    ]},
    {"protein": "CD26/dipeptidylpeptidase IV (Homo sapiens) (protein, made in house; by own knowledge a natural human source (seminal plasma), not recombinant) MKTPWKVLLGLLGAAALVTIITVPVVLLNKGTDDATADSRKTYTLTDYLKNTYRLKLYSLRWISDHEYLYKQENNILVFNAEYGNSSVFLENSTFDEFGHSINDYSISPDGQFILLEYNYVKQWRHSYTASYDIYDLNKRQLITEERIPNNTQWVTWSPVGHKLAYVWNNDIYVKIEPNLPSYRITWTGKEDIIYNGITDWVYEEEVFSAYSALWWSPNGTFLAYAQFNDTEVPLIEYSFYSDESLQYPKTVRVPYPKAGAVNPTVKFFVVNTDSLSSVTNATSIQITAPASMLIGDHYLCDVTWATQERISLQWLRRIQNYSVMDICDYDESSGRWNCLVARQHIEMSTTGWVGRFRPSEPHFTLDGNSFYKIISNEEGYRHICYFQIDKKDCTFITKGTWEVIGIEALTSDYLYYISNEYKGMPGGRNLYKIQLSDYTKVTCLSCELNPERCQYYSVSFSKEAKYYQLRCSGPGLPLYTLHSSVNDKGLRVLEDNSALDKMLQNVQMPSKKLDFIILNETKFWYQMILPPHFDKSKKYPLLLDVYAGPCSQKADTVFRLNWATYLASTENIIVASFDGRGSGYQGDKIMHAINRRLGTFEVEDQIEAARQFSKMGFVDNKRIAIWGWSYGGYVTSMVLGSGSGVFKCGIAVAPVSRWEYYDSVYTERYMGLPTPEDNLDHYRNSTVMSRAENFKQVEYLLIHGTADDNVHFQQSAQISKALVDVGVDFQAMWYTDEDHGIASSTAHQHIYTHMSHFIKQCFSLP", "values": [
      {"measurement": "Km", "setting": "[3]", "result": 183, "unit": "µM"}
    ]}
  ]
}
